Results from the supplement of paper PMC12764529.
± gives the half width of the 95% confidence interval.

Tests used:
[1] = folding stability dG unfold (combined trypsin and chymotrypsin); higher = more stable
Procedure, shortened: (§1)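 Only designs with AlphaFold2 dimer inter-PAE above 15 were retained; each was a mini-protein under 80 residues with no cysteine, in a PA-tagged cDNA display construct. After digestion with trypsin and chymotrypsin and sequencing, K50 was inferred by Bayesian fitting of counts, and unfolding free energy was derived per protease or combined against a sequence-predicted unfolded-state K50 and a shared folded-state K50.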

[2] = folding stability dG unfold from trypsin proteolysis; higher = more stable
Procedure, shortened: as §1

[3] = folding stability dG unfold from chymotrypsin proteolysis; higher = more stable
Procedure, shortened: as §1

Sequence | folding stability dG unfold [1] [kcal/mol] | folding stability dG unfold [2] [kcal/mol] | folding stability dG unfold [3] [kcal/mol]
MKIVEITKIEKKEDGTITITIKIEPVKKGEKLKIRIIHDGKIYEAEIDAESGTITITLPKNVKELKIYIYPS [r1_428_TrROS_Hall] | 3.44 ± 0.28 | 3.21 ± 0.25 | 3.46 ± 0.12
GVVRPLGDPNGQLSIVATDPEGNLLVKALVPNDEAQVEAAKKELLAAMPGLDEKEVVFSIYDPLTGKTKILS [r1_55_JUSTAS] | 1.54 ± 0.12 | 1.07 ± 0.1 | 1.61 ± 0.025
SAMPLLVKVTFYPKDPVTGIPSEEIEEKEVPDIEEAIKEVKKKLPKDNSAKIEVLDENGKLLKTIDLNLSAG [r14_234_JUSTAS] | 0.845 ± 0.12 | 0.721 ± 0.029 | 0.885 ± 0.11
SAGVEIKTDPSKPVITITINYTSIEEAKEYIEKLVKEIGAKEVKIKEDPNSNKITATIDLKDIKKIEKLSAG [r5_598_JUSTAS] | 1.09 ± 0.41 | -0.144 ± 0.52 | 1.46 ± 0.19
SAGGSAGGSGMKTLTIEFPNVTLEEAKEAVLKLLEELGLEPIPLEKVTITYHPENPNVITVVESAGGSAGGS [r12_122_JUSTAS] | 1.35 ± 0.17 | 1.5 ± 0.098 | 1.14 ± 0.12
SAMNTRTVTLTIERPPGSPETLEAVRARLAALGFTVTSESEEVLPDESLTRVTLTVEDPGVPETLLALLSAG [r14_956_JUSTAS] | 1.91 ± 0.06 | 1.65 ± 0.021 | 2.03 ± 0.057
SAGGSAGGSAGSMEEALAAELRARGGVAVEIERIHVPSELAPGTKLPADEVLIRVTARPAASAGGSAGGSAG [r3_229_JUSTAS] | 0.525 ± 0.17 | -0.139 ± 0.46 | 0.683 ± 0.12
SAGGSAGGSAGPPPFKLKIDEMEMADDMFRIKLTIEDPNGEVTVDYWIGNQPFKLRIKPDSAGGSAGGSAGG [r17_45_TrROS] | 2.12 ± 0.17 | 1.53 ± 0.039 | 2.39 ± 0.17
SAMTIVIRLPPPPPPLTAEELAELLGAEVTEIRVERNEDGELVVTITVREDMSEEQRRRLLELLRERAESAG [r14_421_TrROS_Hall] | 4.02 ± 0.075 | 4.32 ± 0.07 | 3.83 ± 0.048
SAGGSAGGSAGPWVWIIMIHMEIERVTVEVRPDPDGKWEYKLEITIKIEIHIIPLPPGATSAGGSAGGSAGG [r11_24_TrROS] | 5.26 ± 0.17 | 3.55 ± 0.15 | 5.37 ± 0.11
SAGGSARPLYIKVQIRNPPNGKKKTIEIPIENMPPGDPEYYKEMARSIAEELQEQNGMEIEGIEIYSAGGSA [r15_1013_TrROS] | 0.566 ± 0.19 | 0.731 ± 0.06 | 0.023 ± 0.27
SAGGSYRVETTKTEVSEATAPDGTAYRVTTTTTVVTYPDGTRRTVTNVTITDPATGVPTSSTATTTAVSAGG [r13_133_JUSTAS] | 2.25 ± 0.03 | 2.45 ± 0.048 | 2.056 ± 0.017
SAGGSWIEFMIMVPYPDGKPLEDLPPEEVVDIAKTFMSDFGYKIKDINVQYNPDDGYVHVPIEIKPSAGGSA [r2_237_TrROS] | 1.21 ± 0.2 | 1.26 ± 0.074 | 1.09 ± 0.2
PSVVYLVLRRPEGGPVRSFRFPVPDRGEPGFEEVLDLIERVTGVSRGALRKNVRIVPVPETGDVLVVADLSS [r1_285_TrMRF] | 1.88 ± 0.065 | 2.052 ± 0.014 | 1.52 ± 0.058
SAGGSAPEVKIVDVEEVDGEVKIKVEAPPGARLLIFNRATGKWEEVEVKPGDTITLPPGALVLVEPSAGGSA [r15_418_TrROS_Hall] | 2.88 ± 0.1 | 1.77 ± 0.025 | 3.22 ± 0.035
SAGGSAGGSAGGMTVTTEKAAPSPRQVTVTTVYDPSTGTSVTIVTLPDGSLKVIPSGTLSAGGSAGGSAGGS [r10_996_JUSTAS] | -0.247 ± 0.23 | 0.193 ± 0.14 | -0.404 ± 0.22
SAGGSAGGSLIPADRTYKVTVTVEGDKVILTLTDPTSSVTYTLTLDIGPEKVPAGSTLTYTGSSAGGSAGGS [r12_525_JUSTAS] | 1.56 ± 0.25 | 1.22 ± 0.075 | 1.7 ± 0.19
SAGGSMRLVERTFVPVKTFTFLSTFNLIQPPGVPVPTFTTLTVVFTPVFTRLVEVVTEPPGRVVEVLLSAGG [r13_148_JUSTAS] | 4.06 ± 0.21 | 3.73 ± 0.15 | 4.33 ± 0.13
SAGGMVVRIKVKIKNPETGEVIEVEALVEVDEDGNVTITLPNGKKITLPKGAKVEIVDVEELPPEDLSAGGS [r16_223_TrROS_Hall] | 3.52 ± 0.093 | 3.72 ± 0.11 | 3.14 ± 0.075
SMEVYTEETEEKSPTPLRRRTTTTTVVTRDGSRTVVTVETRVELEPVPPVPPRPLPPIYTPENREVNILLSA [r9_965_JUSTAS] | 1.38 ± 0.73 | 1.54 ± 0.17 | 0.51 ± 0.81
SAGGSAGGTITVTPLPDGRELITYPEKNALVEIVKDPATGKETVIVYEDGEPKVISLEELKKKLSAGGSAGG [r6_534_JUSTAS] | 0.417 ± 0.079 | 0.359 ± 0.059 | 0.383 ± 0.021
